# T1: murine NKG2D on NK cells / splenocytes (mouse, UniProt O54709 1-232)
# T1 construct: whole, on cells; also called NKG2D receptor
# T1 sequence: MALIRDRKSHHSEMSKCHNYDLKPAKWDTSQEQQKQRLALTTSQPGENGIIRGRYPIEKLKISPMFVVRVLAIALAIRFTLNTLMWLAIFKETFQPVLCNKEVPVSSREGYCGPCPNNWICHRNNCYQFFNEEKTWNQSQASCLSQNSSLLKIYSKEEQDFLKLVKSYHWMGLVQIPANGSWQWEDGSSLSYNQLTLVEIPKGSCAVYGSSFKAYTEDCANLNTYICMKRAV
# Target: T1, murine NKG2D on NK cells / splenocytes
# Assay: flow cytometry, fluorescently labeled construct on bulk splenocytes at 37° C.
binder,measurement,value
"OMCP-mutIL2 (R38A, F42K, C125S IL2-OMCP construct) (other, also called OMCP-mutant IL2; OMCP-IL2 construct) HKLAFNFNLEINGSDTHSTVDVYLDDSQIITFDGKDIRPTIPFMIGDEIFLPFYKNVFSEFFSLFRRVPTSTPYEDLTYFYECDYTDNKSTFDQFYLYNGEEYTVKTQEATNKNMWLTTSEFRLKKWFDGEDCIMHLRSLVRKMEDSKRNTGGTGSSGSSDYKDDDDKHHHHHHHHGSSGSSAPTSSSTKKTQLQLEHLLLDLQMILNGINNYKNPKLTAMLTKKFYMPKKATELKHLQCLEEELKPLEEVLNLAQSKNFHLRPRDLISNINVIVLELKGSETTFMCEYADETATIVEFLNRWITFSQSIISTLT",binding result,binds

# From patent US20190119345A1 (published 2019)
